Experiments:
ERK [1] = assay: bKiMBI bioluminescence in cancer cell lines U87, U87-EGFRvIII, SK-OV-3; assay type: cell-based, human; conditions: SK-OV-3 cells
Excerpt: Endogenous ERK activity in these cell lines appeared to be only partially activated, as co-expressing caMEK further suppressed basal KiMBI signal. […] This provides additional evidence that KiMBI responds positively to ERK inhibition, and argues against inhibitors directly binding KiMBIs to enhance NanoLuc assembly or catalysis. […] Positive KiMBI responses must actually overcome this tendency of kinase inhibitors to suppress bioluminescence.
In vitro cell-based bioluminescent assay. Cells were seeded into 96-well Lumitrac plate (Greiner Bio-One) at a density of 1.5-2×10^4 cells per well. After 24 h, cells were transiently transfected with KiMBI-expressing plasmids (5-10 ng per well) with or without caMEK-expressing plasmids (50 ng per well, empty pcDNA3.1 as negative control to keep total transfected DNA amount consistent) using lipofectamine 3000 (Invitrogen) following manufacturer's instructions. […] Then, for assaying luminescence, Nano-Glo live cell assay system (Promega) was used following manufacturer's instructions. Time-lapse live luminescence was recorded on Safire-2 microplate reader (Tecan) with 100 ms integration and one read per min for 20 min. Luminescence spectrum was measured on a Varioskan LUX multimode microplate reader (Thermo Scientific) using the spectral scanning protocol with 1 s integration for each wavelength at 400-680 nm (1 nm per data point).

ERK [2] = assay: ERK KiMBI cell-based bioluminescent assay, HEK293A cells co-transfected with caMEK; conditions: FIG. 5d
Excerpt: To develop a luciferase reporter protein whose activity can be activated by ERK inhibition, it was hypothesized that NanoLuc luciferase catalytic activity could be modulated through large ERK-induced conformational changes. Created and tested were fusion proteins of various topologies (FIG. 2a) comprising the NanoLuc NanoBiT fragments, an ERK substrate peptide from Cdc25C^7, and a proline-directed WW phospho-binding domain (WW)^8 from Pin1. In particular, an arrangement was postulated in which binding of phosphorylated substrate (pSub) to WW would force the SmBiT fragment to adopt an unfavorable conformation for LgBiT complementation, would show low luminescence with active ERK and high luminescence with inhibited ERK (FIG. 2b). […]
In vitro cell-based bioluminescent assay. […] Then, for assaying luminescence, Nano-Glo live cell assay system (Promega) was used following manufacturer's instructions. Time-lapse live luminescence was recorded on Safire-2 microplate reader (Tecan) with 100 ms integration and one read per min for 20 min. Luminescence spectrum was measured on a Varioskan LUX multimode microplate reader (Thermo Scientific) using the spectral scanning protocol with 1 s integration for each wavelength at 400-680 nm (1 nm per data point).

B1: bKiMBI: ERK blue KiMBI, WW F25A; SEQ ID NO:2 (protein)
chain: MVSKGEELIKENMRSKLYLEGSVNGHQFKCTHEGEGKPYEGKQTNRIKVVEGGPLPFAFDILATHFMYGSKVFIKYPADLPDYFKQSFPEGFTWERVMVFEDGGVLTATQDTSLQDGELIYNVKVRGVNFPANGPVMQKKTLGWEPSTETMYPADGGLEGRCDKALKLVGGGHLHVNFKTTYKSKKPVKMPGVHYVDRRLERIKEADNETYVEQYEHAVARYSNLGGGFTLEDFVGDWEQTAAYNLDQVLEQGGVSSLLQNLAVSVTPIQRIVRSGENALKIDIHVIIPYEGLSADQMAQIEEVFKVVYPVDDHHFKVILPYGTLVIDGVTPNMLNYFGRPYEGIAVFDGKKITVTGTLWNGNKIIDERLITPDGSMLFRVTINSIMADEEKLPPGWEKRMSRSSGRVYYANHITNASQWERPSGNSSSGGKNGQGEPARVTGYRLFEPDSPRTPVDKAKLSFQFP
- bKiMBI response (brightness increase) after ERK inhibition (ERK [1]): ~2.5 fold

B2: tKiMBI: ERK KiMBI with N-terminal tdTomato; SEQ ID NO:4 (protein)
chain: MVSKGEEVIKEFMRFKVRMEGSMNGHEFEIEGEGEGRPYEGTQTAKLKVTKGGPLPFAWDILSPQFMYGSKAYVKHPADIPDYKKLSFPEGFKWERVMNFEDGGLVTVTQDSSLQDGTLIYKVKMRGTNFPPDGPVMQKKTMGWEASTERLYPRDGVLKGEIHQALKLKDGGHYLVEFKTIYMAKKPVQLPGYYYVDTKLDITSHNEDYTIVEQYERSEGRHHLFLGHGTGSTGSGSSGTASSEDNNMAVIKEFMRFKVRMEGSMNGHEFEIEGEGEGRPYEGTQTAKLKVTKGGPLPFAWDILSPQFMYGSKAYVKHPADIPDYKKLSFPEGFKWERVMNFEDGGLVTVTQDSSLQDGTLIYKVKMRGTNFPPDGPVMQKKTMGWEASTERLYPRDGVLKGEIHQALKLKDGGHYLVEFKTIYMAKKPVQLPGYYYVDTKLDITSHNEDYTIVEQYERSEGRHHLFRLEDFVGDWEQTAAYNLDQVLEQGGVSSLLQNLAVSVTPIQRIVRSGENALKIDIHVIIPYEGLSADQMAQIEEVFKVVYPVDDHHFKVILPYGTLVIDGVTPNMLNYFGRPYEGIAVFDGKKITVTGTLWNGNKIIDERLITPDGSMLFRVTINSIMADEEKLPPGWEKRMSRSSGRVYYFNHITNASQWERPSGNSSSGGKNGQGEPARVTGYRLFEPDSPRTPVDKAKLSFQFP
- time to full induction of reporter by kinase inhibitor (ERK [2]): ~1 h
